Data reported in publication PMC9464236, “Biochemical characterization of a disease-causing human osteoprotegerin variant” (Scientific Reports, 2022).
“And” between values parts separate entries of the source, which are not always exact repeats. Identical values can stand only once.

T1: recombinant soluble RANKL (sRANKL) (UniProt O35235 139-316)
T1 chain: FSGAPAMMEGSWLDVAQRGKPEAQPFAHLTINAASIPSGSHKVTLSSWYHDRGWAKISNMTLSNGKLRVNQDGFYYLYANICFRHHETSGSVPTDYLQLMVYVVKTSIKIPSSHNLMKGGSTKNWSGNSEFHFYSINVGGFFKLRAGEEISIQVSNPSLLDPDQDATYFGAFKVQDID


Experiments:
[1] = target: T1, recombinant soluble RANKL (sRANKL); test: ELISA
[2] = target: the molecule itself; test: SEC; Superdex 200, 25 mM HEPES pH 7.1, 150 mM NaCl; peak fractions from the heparin Sepharose column; ferritin (440 kDa) and IgG (150 kDa) as markers

Kd [1] [nM]	Binder	stoichiometry N [2]
4.65	human osteoprotegerin Stop402Leu mutant with a 19-residue C-terminal appendage (OPG^+19) (receptor, Osteoprotegerin (OPG, TNFRSF11B), human; complete open reading frame, residues up to 401, followed by the read-through appendage; 19-residue appendage 402-420 made by read-through of the mutated stop codon (Stop402Leu); Secreted; Mixture of higher-order oligomers; also called mutant hOPG; mutant OPG; source: 293-freestyle cells, transiently transfected; purified from medium (heparin Sepharose, …)) ETFPPKYLHYDEETSHQLLCDKCPPGTYLKQHCTAKWKTVCAPCPDHYYTDSWHTSDECLYCSPVCKELQYVKQECNRTHNRVCECKEGRYLEIEFCLKHRSCPPGFGVVQAGTPERNTVCKRCPDGFFSNETSSKAPCRKHTNCSVFGLLLTQKGNATHDNICSGNSESTQKCGIDVTLCEEAFFRFAVPTKFTPNWLSVLVDNLPGTKVNAESVERIKRQHSSQEQTFQLLKLWKHQNKDQDIVKKIIQDIDLCENSVQRHIGHANLTFEQLRSLMESLPGKKVGAEDIEKTIKACKPSDQILKLLSLWRIKNGDQDTLKGLMHALKHSKTYHFPKTVTQSLKKTIRFLHSFTMYKLYQKLFLEMIGNQVQSVKISCLLLEMAIELFPHNWRDPMDE	12 and 6 and 4
4.8	wildtype human osteoprotegerin (WT OPG) (receptor, UniProt O00300 22-401, looked up, Osteoprotegerin (OPG, TNFRSF11B), human; complete open reading frame of full-length human OPG in pcDNA3.4-TOPO; stop codon at position 402; Disulfide-linked dimer; assays used the SEC-purified dimer; also called WT hOPG; hOPG; source: 293-freestyle cells, transiently transfected; purified from medium (heparin Sepharose, Superdex 200)) ETFPPKYLHYDEETSHQLLCDKCPPGTYLKQHCTAKWKTVCAPCPDHYYTDSWHTSDECLYCSPVCKELQYVKQECNRTHNRVCECKEGRYLEIEFCLKHRSCPPGFGVVQAGTPERNTVCKRCPDGFFSNETSSKAPCRKHTNCSVFGLLLTQKGNATHDNICSGNSESTQKCGIDVTLCEEAFFRFAVPTKFTPNWLSVLVDNLPGTKVNAESVERIKRQHSSQEQTFQLLKLWKHQNKDQDIVKKIIQDIDLCENSVQRHIGHANLTFEQLRSLMESLPGKKVGAEDIEKTIKACKPSDQILKLLSLWRIKNGDQDTLKGLMHALKHSKTYHFPKTVTQSLKKTIRFLHSFTMYKLYQKLFLEMIGNQVQSVKISCL	2
